pKd: −log10 of the molar value.
Molecular target: C-CA (W184A/M185A) (HIV-1) (UniProt P04591)
Test: NMR, slow exchange kinetics of binding

Q: How did the pKd turn out when NYAD-1 (peptide) was run?
A: > 5.00

From patent publication US8940864
